doi:10.1101/2025.06.13.659133, “Anti-activin treatment increases T cell infiltration in breast and pancreatic tumours and promotes survival in a SMAD4-null mouse pancreatic cancer model” (bioRxiv, 2025)
Each block holds one binder with its values, some of them ahead of it.

Tests used:
[1] = molecular target: T1, Noggin (UniProt Q13253 28-232); assay: SPR; activin A, TGF-β3 or BMP2 immobilised on a CM4 chip (EDC-NHS, up to 400 RU); antibodies or control binders flowed over; BIAcore T200; 10 mM CHES, 150 mM NaCl, 3 mM EDTA, 0.01% P20, pH 8.0; 1:1 kinetic model; settings: both partners purified
T1 construct: Noggin, bought from Peprotech; source: bought: Peprotech
T1 sequence (looked up): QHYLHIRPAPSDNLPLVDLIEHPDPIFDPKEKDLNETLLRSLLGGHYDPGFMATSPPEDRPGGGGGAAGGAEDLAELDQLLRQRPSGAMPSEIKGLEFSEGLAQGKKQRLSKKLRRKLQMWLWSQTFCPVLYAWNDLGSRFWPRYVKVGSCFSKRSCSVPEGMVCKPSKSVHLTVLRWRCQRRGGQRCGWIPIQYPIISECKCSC

[2] = molecular target: T2, ACVR2B-ECD (used in SPR) (UniProt Q13705 19-137); assay: as above; settings: both partners purified
T2 construct: also called ACVR2B extracellular domain (ECD)
T2 sequence (looked up): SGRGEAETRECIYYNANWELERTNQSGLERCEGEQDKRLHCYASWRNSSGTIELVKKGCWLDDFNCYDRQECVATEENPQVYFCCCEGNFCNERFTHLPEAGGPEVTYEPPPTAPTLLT

Kd [1]: 1.26 nM
B1: BMP2 (ligand, UniProt P12643 283-396, looked up)
chain: QAKHKQRKRLKSSCKRHPLYVDFSDVGWNDWIVAPPGYHAFYCHGECPFPLADHLNSTNHAIVQTLVNSVNSKIPKACCVPTELSAISMLYLDENEKVVLKNYQDMVVEGCGCR
notes: BMP2, bought from Peprotech; source: bought: Peprotech

Kd [2]: 114 nM
B2: activin A (immobilised on the SPR chip) (ligand, UniProt P08476 311-426, looked up)
chain: GLECDGKVNICCKKQFFVSFKDIGWNDWIIAPSGYHANYCEGECPSHIAGTSGSSLSFHSTVINHYRMRGHSPFANLKSCCVPTKLRPMSMLYYDDGQNIIKKDIQNMIVEECGCS
